Measured values taken from patent US6890721.

Target: poly (ADP-ribose) polymerase (PARP)

Protein | PARP cleavage (immunoblot with anti-PARP monoclonal antibody C-2-10)
granzyme B-processed Yama (activated) (protein) SGISLDNSYKMDYPEMGLCIIINNKNFHKSTGMTSRSGTDVDAANLRETFRNLKYEVRNKNDLTREEIVELMRDVSKEDHSKRSSFVCVLLSHGEEGIIFGTNGPVDLKKITNFFRGDRCRSLTGKPKLFIIQACRGTELDCGIETDSGVDDDMACHKIPVEADFLYAYSTAPGYYSWRNSKDGSWFIQSLCAMLKQYADKLEFMHILTRVNRKVATEFESFSFDATFHAKKQIPCIVSMLTKELYFYH | Both granzyme B-processed Yama and ICE LAP-6 were active as determined by their ability to cleave PARP
granzyme B-processed ICE LAP-6 (activated) (protein) IGSGGFGDVGALESLRGNADLAYILSMEPCGHCLIINNVNFCRESGLRTRTGSNIDCEKLRRRFSSLHFMVEVKGDLTAKKMVLALLELARQDHGALDCCVVVILSHGCQASHLQFPGAVYGTDGCPVSVEKIVNIFNGTSCPSLGGKPKLFFIQACGGEQKDHGFEVASTSPEDESPGSNPEPDATPFQEGLRTFDQLDAISSLPTPSDIFVSYSTFPGFVSWRDPKSGSWYVETLDDIFEQWAHSEDLQSLLLRVANAVSVKGIYKQMPGCFNFLRKKLFFKTSHHHHHH | Both granzyme B-processed Yama and ICE LAP-6 were active as determined by their ability to cleave PARP
